Usually Kd stands for a measure of binding affinity in units of concentration. Read a high Kd as weaker binding. One may read the koff as the rate constant with which the complex falls apart. A high value points to fast dissociation. The term kon denotes a measure of how fast the partners come together. Read a high kon as faster complex formation.

One test concerns the target T1, human ROR1 (hROR1) (human, UniProt Q01973 30-937).
T1 construct: On HCT116-hROR1 transfectants, Mino cells or Ntera-2 cells, as the assay of each row says; also called receptor tyrosine kinase like orphan receptor 1
Kind of test: flow cytometry, HCT116-hROR1 cells. How it is done:
A mix of ROR1 positive and negative cells was prepared as follows. Ror1 negative cells were washed 2× in PBS then incubated in PBS containing 1 nM CellTrace™ Oregon Green488® (Life Technologies) at 37° C. for 30 minutes. Cells were then washed 2× with RPMI w/10% fetal calf serum (or FCS), washed 2× with FACS buffer (PBS+0.5% BSA), suspended thoroughly in ice-cold FACS buffer at a final concentration of 4×10^6 cells/ml and kept on ice. ROR1 positive cells were washed 2× in PBS and suspended with ice-cold FACS buffer at 4×10^6 cells/ml. ROR1 positive and negative cells were then mixed to obtain a 1-1 cell suspension and seeded at 50 μl per well on 96 well polypropylene plates. 50 μl of 6-12 point dilutions of anti-ROR1 variants starting from concentrations of ˜100-200 nM antibody was dispensed using BioMekFX (Beckman Coulter) into each well. Cells were then incubated on ice for 1 hr, washed with FACS buffer and incubated for 1 hr on ice with 50 μl FACS buffer containing 2.5 μg/ml Alexa647-conjugated Goat Anti-Human IgG dispensed using BioMekFX (Beckman Coulter). Cells were then washed 2× with FACS buffer and fixed for 10 minutes in 200 μl PBS with 2% PFA prior to fluorescence detection. Samples were acquired using a Beckton Dickinson LSRII FACS. Mean Fluorescence Intensity of ROR1 antibody binding was analyzed using FlowJo® software (Tree Star, Inc.).
A general note: In flow cytometry, cells or beads pass a laser one at a time.

The target of test [1] is T2, human ROR1 Frizzled domain (hROR1-Fz) (human, UniProt Q01973 165-305).
T2 construct: Acro Biosystems, made in HEK293
Kind of test: SPR Biacore, IgG on anti-Fc, ROR1-Fz analyte. The method, then: Anti-Fc polyclonal antibodies were immobilized onto a CMS chip (GE Life Sciences) using amine coupling chemistry (from Amine Coupling Kit, GE Life Sciences). The immobilization steps were carried out at a flow rate of 25 μL/min in 1×HBS-EP+buffer (GE Life Sciences; 10× Stock diluted before use). The sensor surfaces were activated for 7 min with a mixture of NHS (0.05 M) and EDC (0.2 M). The Anti-Fc antibodies were injected over all 4 flow cells at a concentration of 25 ug/ml in 10 mM sodium acetate, pH 4.5, for 7 min. Ethanolamine (1 M, pH 8.5) was injected for 7 min to block any remaining activated groups.
Off-rate and kinetic binding experiments were performed at 25° C. using 1×HBS-EP+buffer. Test and control antibodies were injected over the anti-Fc surface at concentrations of 5-10 μg/mL for 12 seconds at a flow rate of 10 μL/min on flow cells 2, 3 and 4, followed by a buffer wash for 30 seconds at the same flow rate. […] After capturing ligand (antibody) on the anti-Fc surface, the analyte (hROR1, Fz or Kr domains, Acro Biosystems, Delaware) was bound for 180 seconds, followed by a 600 second dissociation phase at a flow rate of 50 μL/min. Between each ligand capture and analyte binding cycle, regeneration was carried out using 2 injections of 10 mM Glycine pH 2.0 for 30 seconds at 30 μL/min, followed by a 30 second buffer wash step.
(In general: SPR reads the build-up and loss of mass on a sensor chip optically.)

B1: SRP2194-A06 (antibody, IgG1, V domains shown)
VH: EVQLVESGGGLVQPGGSLRLSCAASGFNITDYYIHWVRQAPGKGLEWVGYISPLAGNTYHADSVKGRFPISADTSKNTAYLQMNSLRAEDTAVYYCARDSRRYVRPFDYWGQGTLVTVSS
VL: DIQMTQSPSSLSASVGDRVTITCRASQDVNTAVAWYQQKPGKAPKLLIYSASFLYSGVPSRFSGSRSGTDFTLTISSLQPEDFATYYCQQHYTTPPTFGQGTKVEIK
notes: His/FLAG-tagged IgG1, cell-free
With B1, in the test with human ROR1 (hROR1), the “Bmax (MFI)” value worked out at 9050 MFI and the Kd was found to be 0.49 nM. Also, in test [1], binding was put at a Kd of 3.75 nM, the koff is 0.00193 s⁻¹ and the kon worked out at 516000 M⁻¹ s⁻¹.

B2: SRP2194-A02 (antibody, IgG1, V domains shown)
VH: EVQLVESGGGLVQPGGSLRLSCAASGFNITGYYIHWVRQAPGKGLEWVGYISPLAGNTYHADSVKGRFTISADTSKNTAYLQMNSLRAEDTAVYYCARDSRRYVRPFDYWGQGTLVTVSS
VL: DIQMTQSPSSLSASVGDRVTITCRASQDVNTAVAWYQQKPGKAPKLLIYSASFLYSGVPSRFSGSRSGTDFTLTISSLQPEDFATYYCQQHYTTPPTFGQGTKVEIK
notes: as for B1
For B2, in the test with human ROR1 (hROR1), the “Bmax (MFI)” value is 9220 MFI and binding was characterised by a dissociation constant (Kd) of 0.14 nM. In test [1], this molecule registered an equilibrium dissociation constant (Kd) of 1.39 nM, a koff of 0.000429 s⁻¹ and a kon of 308000 M⁻¹ s⁻¹.

B3: SRP2196-B08 (antibody, V domains shown)
VH: EVQLVESGGGLVQPGGSLRLSCAASGFNITGYYIHWVRQAPGKGLEWVGQISPNSGYTYLADSVKGRFTISADTSKNTAYLQMNSLRAEDTAVYYCARDSRRYVRGWDYWGQGTLVTVSS
VL: QAVVTQESALTTSPGETVTLTCRSSTGAVTTSNYANWVQEKPDHLFTGLIGGTNKRAPGVPARFSGSLIGDKAALTITGAQTEDEAIYFCALWYSNLWVFGGGTKLTVL
notes: His/FLAG-tagged IgG1
Consider B3, for which, in the test with human ROR1 (hROR1), the “Bmax (MFI)” value worked out at 14400 MFI and the Kd stood at 0.2 nM. For the same molecule, in test [1], binding was put at a Kd of 3.13 nM, the koff stood at 0.000488 s⁻¹ and the kon stood at 156000 M⁻¹ s⁻¹.

B4: SRP2196-A05 (antibody, V domains shown)
VH: EVQLVESGGGLVQPGGSLRLSCAASGFNITNYYIHWVRQAPGKGLEWVGYISPNSGATYQADSVKGRFTISADTSKNTAYLQMNSLRAEDTAVYYCARDSRRYVRSWDYWGQGTLVTVSS
VL: QAVVTQESALTTSPGETVTLTCRSSTGAVTTSNYANWVQEKPDHLFTGLIGGTNKRAPGVPARFSGSLIGDKAALTITGAQTEDEAIYFCALWYSNLWVFGGGTKLTVL
notes: His/FLAG-tagged IgG1
As for B4, in the test with human ROR1 (hROR1), the “Bmax (MFI)” value was 14800 MFI and binding was characterised by a dissociation constant (Kd) of 0.3 nM. Also, in test [1], the Kd stood at 3.9 nM, the koff stood at 0.000682 s⁻¹ and the kon amounted to 175000 M⁻¹ s⁻¹.

B5: SRP2194-B03 (antibody, IgG1, V domains shown)
VH: EVQLVESGGGLVQPGGSLRLSCAASGFNITSYYIHWVRQAPGKGLEWVGYISPLAGNTYHADSVKGRFTISADTSKNTAYLQMNSLRAEDTAVYYCARDSRRYVRPFDYWGQGTLVTVSS
VL: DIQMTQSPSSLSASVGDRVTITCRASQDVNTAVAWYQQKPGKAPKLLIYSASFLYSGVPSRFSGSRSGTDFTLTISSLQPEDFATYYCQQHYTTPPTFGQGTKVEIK
notes: as for B1
Turning to B5, in the test with human ROR1 (hROR1), the “Bmax (MFI)” value stood at 9480 MFI and the Kd turned out to be 0.18 nM. In test [1], this molecule yielded a Kd of 1.42 nM, a koff of 0.000295 s⁻¹ and a kon of 207000 M⁻¹ s⁻¹.

B6: SRP2194-A07 (antibody, IgG1, V domains shown)
VH: EVQLVESGGGLVQPGGSLRLSCAASGFNFTDYYIHWVRQAPGKGLEWVGYISPLAGNTYHADSVKGRFTISADTSKNTAYLQMNSLRAEDTAVYYCARDSRRYVRPFDYWGQGTLVTVSS
VL: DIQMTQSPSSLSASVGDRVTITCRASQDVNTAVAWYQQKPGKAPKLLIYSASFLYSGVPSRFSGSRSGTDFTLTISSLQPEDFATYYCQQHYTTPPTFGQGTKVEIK
notes: as for B1
Turning to B6, in the test with human ROR1 (hROR1), the “Bmax (MFI)” value turned out to be 8770 MFI and binding was characterised by a dissociation constant (Kd) of 0.41 nM. In test [1], the Kd is 1.61 nM, the koff came out at 0.000275 s⁻¹ and the kon stood at 171000 M⁻¹ s⁻¹.

B7: SRP2196-A06 (antibody, V domains shown)
VH: EVQLVESGGGLVQPGGSLRLSCAASGFNITGYYIHWVRQAPGKGLEWVGQISPNSGSTHQADSVKGRFTISADTSKNTAYLQMNSLRAGDTAVYYCARDSRRYVRGWDYWGQGTLVTVSS
VL: QAVVTQESALTTSPGETVTLTCRSSTGAVTTSNYANWVQEKPDHLFTGLIGGTNKRAPGVPARFSGSLIGDKAALTITGAQTEDEAIYFCALWYSNLWVFGGGTKLTVL
notes: His/FLAG-tagged IgG1
As for B7, in the test with human ROR1 (hROR1), the “Bmax (MFI)” value is 14600 MFI and the Kd was 0.2 nM. In addition, in test [1], the affinity, expressed as Kd, was 3.82 nM; the koff turned out to be 0.00069 s⁻¹; the kon stood at 180000 M⁻¹ s⁻¹.

B8: SRP2194-B04 (antibody, IgG1, V domains shown)
VH: EVQLVESGGGLVQPGGSLRLSCAASGFNITGYHIHWVRQAPGKGLEWVGYISPLAGNTYHADSVKGRFTISADTSKNTAYLQMNSLRAEDTAVYYCTRDSRRYVRPLDYWGQGTLVTVSS
VL: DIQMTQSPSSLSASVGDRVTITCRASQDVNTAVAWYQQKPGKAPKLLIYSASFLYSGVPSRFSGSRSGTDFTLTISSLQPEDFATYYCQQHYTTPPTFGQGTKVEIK
notes: His/FLAG-tagged IgG1, cell-free; also called Antibody 129
With B8, in the test with human ROR1 (hROR1), the “Bmax (MFI)” value was 9300 MFI and the affinity, expressed as Kd, was 0.2 nM. Moreover, in test [1], binding was characterised by a dissociation constant (Kd) of 1.44 nM, the dissociation rate constant (koff) was found to be 0.000392 s⁻¹ and the kon is 271000 M⁻¹ s⁻¹.

B9: SRP2194-B01 (antibody, IgG1, V domains shown)
VH: EVQLVESGGGLVQPGGSLRLSCAASGFNIASYYIHWVRQAPGKGLEWVGYISPLAGNTYHADSVKGRFTISADTSKNTAYLQMNSLRAEDTAVYYCARDSRRYVRPFDYWGQGTLVTVSS
VL: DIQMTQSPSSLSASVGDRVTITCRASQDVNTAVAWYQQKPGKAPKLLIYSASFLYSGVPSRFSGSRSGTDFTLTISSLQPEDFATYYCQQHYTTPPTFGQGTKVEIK
notes: His/FLAG-tagged IgG1, cell-free; also called Antibody 140
Take B9: in the test with human ROR1 (hROR1), the “Bmax (MFI)” value is 8860 MFI and binding was put at a Kd of 0.14 nM. Besides, in test [1], the Kd was 3.12 nM, the koff was 0.000857 s⁻¹ and the kon came out at 274000 M⁻¹ s⁻¹.

B10: SRP2194-B02 (antibody, IgG1, V domains shown)
VH: EVQLVESGGGLVQPGGSLRLSCAASGFNISGYYIHWVRQTPGKGLEWVGYISPLAGNTYHADSVKGRFTISADTSKNTAYLQMNSLRAEDTAVYYCARDSRRYVRPLDYWGQGTLVTVSS
VL: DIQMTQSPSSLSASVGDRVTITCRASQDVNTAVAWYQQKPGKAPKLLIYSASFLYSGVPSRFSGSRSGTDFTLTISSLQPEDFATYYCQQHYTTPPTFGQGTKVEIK
notes: as for B1
Consider B10, for which, in the test with human ROR1 (hROR1), the “Bmax (MFI)” value came to 9330 MFI and the equilibrium dissociation constant (Kd) worked out at 0.15 nM. Besides, in test [1], the Kd came to 2.77 nM, the koff was 0.00071 s⁻¹ and the on-rate constant (kon) was 256000 M⁻¹ s⁻¹.

B11: SRP2196-A03 (antibody, V domains shown)
VH: EVQLVESGGGLVQPGGSLRLSCAASGFNITQYHIHWVRQAPGKGLEWVGYISPNSGSTHEADSVKGRFTISADTSKNTAYLQMNSLRAEDTAVYYCARDSRRYVRGWDYWGQGTLVTVSS
VL: QAVVTQESALTTSPGETVTLTCRSSTGAVTTSNYANWVQEKPDHLFTGLIGGTNKRAPGVPARFSGSLIGDKAALTITGAQTEDEAIYFCALWYSNLWVFGGGTKLTVL
notes: His/FLAG-tagged IgG1; also called Antibody 150
For B11, in the test with human ROR1 (hROR1), the “Bmax (MFI)” value is 15400 MFI and the equilibrium dissociation constant (Kd) came out at 0.3 nM. In test [1], the Kd is 1.63 nM, the off-rate constant (koff) was determined as 0.000275 s⁻¹ and the kon came to 169000 M⁻¹ s⁻¹.

B12: SRP2196-A04 (antibody, V domains shown)
VH: EVQLVESGGGLVQPGGSLRLSCAASGFNISPYYIHWVRQAPGKGLEWVGQIYPISGHTYQADSVKGRFTISADTSKNTAYLQMNSLRAEDTAVYYCARESRRYVGPFGYWGQGTLVTVSS
VL: QAVVTQESALTTSPGETVTLTCRSSTGAVTTSNYANWVQEKPDHLFTGLIGGTNKRAPGVPARFSGSLIGDKAALTITGAQTEDEAIYFCALWYSNLWVFGGGTKLTVL
notes: His/FLAG-tagged IgG1
With B12, in the test with human ROR1 (hROR1), the “Bmax (MFI)” value was 14200 MFI and binding was characterised by a dissociation constant (Kd) of 0.1 nM. In addition, in test [1], the Kd turned out to be 2.46 nM, the koff was 0.000343 s⁻¹ and the on-rate (kon) worked out at 139000 M⁻¹ s⁻¹.

B13: SRP2196-A07 (antibody, V domains shown)
VH: EVQLVESGGGLVQPGGSLRLSCAASGFNITGYYIHWVRQAPGKGLEWVGQISPNSGSTYYADSVKGRFTISADTSKNTAYLQMSSLRAEDTAVYYCARDSRRYVRGWDYWGQGTLVTVSS
VL: QAVVTQESALTTSPGETVTLTCRSSTGAVTTSNYANWVQEKPDHLFTGLIGGTNKRAPGVPARFSGSLIGDKAALTITGAQTEDEAIYFCALWYSNLWVFGGGTKLTVL
notes: His/FLAG-tagged IgG1
For B13, in the test with human ROR1 (hROR1), the “Bmax (MFI)” value was found to be 14100 MFI and the equilibrium dissociation constant (Kd) was found to be 0.2 nM. In test [1], this molecule returned a Kd of 3.44 nM, a koff of 0.00064 s⁻¹ and a kon of 186000 M⁻¹ s⁻¹.

B14: SRP2196-A08 (antibody, V domains shown)
VH: EVQLVESGGGLVQPGGSLRLSCAASGFNITGYYIHWVRQAPGKGLEWVGYISPNSGSTYKADSVKGRFTISADTSRNTAYLQMNSLRAEDTAVYYCARDSRRYVRSWDYWGQGTLVTVSS
VL: QAVVTQESALTTSPGETVTLTCRSSTGAVTTSNYANWVQEKPDHLFTGLIGGTNKRAPGVPARFSGSLIGDKAALTITGAQTEDEAIYFCALWYSNLWVFGGGTKLTVL
notes: His/FLAG-tagged IgG1
With B14, in the test with human ROR1 (hROR1), the “Bmax (MFI)” value turned out to be 13900 MFI and the affinity, expressed as Kd, was 0.2 nM. In test [1], the dissociation constant (Kd) amounted to 4.26 nM, the koff turned out to be 0.00078 s⁻¹ and the kon was found to be 183000 M⁻¹ s⁻¹.

(Values after patent publication US20240058465A1 (SUTRO BIOPHARMA, published 2024).)
